{
  "source": "paper PMC8755542",
  "about": "“HELQ is a dual-function DSB repair enzyme modulated by RPA and RAD51” (Nature, 2021)",
  "binders": {"B1": {"name": "Alx–RAD51 (RAD51(C319S) labelled with Alexa Fluor 488 C5 maleimide) (natural protein, human, UniProt Q06609 1-339, looked up)", "chain": "MAMQMQLEANADTSVEEESFGPQPISRLEQCGINANDVKKLEEAGFHTVEAVAYAPKKELINIKGISEAKADKILAEAAKLVPMGFTTATEFHQRRSEIIQITTGSKELDKLLQGGIETGSITEMFGEFRTGKTQICHTLAVTCQLPIDRGGGEGKAMYIDTEGTFRPERLLAVAERYGLSGSDVLDNVAYARAFNTDHQTQLLYQASAMMVESRYALLIVDSATALYRTDYSGRGELSARQMHLARFLRMLLRLADEFGVAVVITNQVVAQVDGAAMFAADPKKPIGGNIIAHASTTRLYLRKGRGETRICKIYDSPSLPEAEAMFAINADGVGDAKD", "modifications": "Alexa Fluor 488 C5 maleimide label (1:1 labelling stoichiometry; labelled residue not given)", "notes": "human RAD51 recombinase with the mutation C319S; also called RAD51(A488); source: E. coli, purified as WT RAD51, then labelled and separated from free dye (Zeba column)"}, "B2": {"name": "ssDNA (oligo 1) (ssDNA)", "DNA": "AGCTACCATGCCTGCACGAATTAAGCAATTCGTAATCATGGTCATAGCT"}, "B3": {"name": "lambda4 80-mer (ssDNA)", "DNA": "CCTGAACGACCAGGCGTCTTCGTTCATCTATCGGATCGCCACACTCACAACAATGAGTGGCAGATATAGCCTGGTGGTTC"}, "B4": {"name": "dT79 (ssDNA)", "DNA": "TTTTTTTTTTTTTTTTTTTTTTTTTTTTTTTTTTTTTTTTTTTTTTTTTTTTTTTTTTTTTTTTTTTTTTTTTTTTTTT"}, "B5": {"name": "dsDNA (oligo 1 + oligo 2) (dsDNA)", "DNA 1": "B2 DNA", "DNA 2": "AGCTATGACCATGATTACGAATTGCTTAATTCGTGCAGGCATGGTAGCT"}},
  "key": {"[1]": {"molecular_target": "T1, HELQ (wild type, purified recombinant human HELQ) (human, UniProt Q8TDG4 1-1101)", "T1 construct": "human HELQ helicase; custom HELQ ORF (GeneArt); Eluted from Flag resin with 3xFlag peptide; no removal of the Flag tag is described; also called HELQ WT; WT HELQ; source: Sf9 insect cells, purified (amylose, PreScission cleavage of MBP, anti-Flag resin); not shown: MBP, N-terminal, cleaved", "T1 sequence (looked up)": "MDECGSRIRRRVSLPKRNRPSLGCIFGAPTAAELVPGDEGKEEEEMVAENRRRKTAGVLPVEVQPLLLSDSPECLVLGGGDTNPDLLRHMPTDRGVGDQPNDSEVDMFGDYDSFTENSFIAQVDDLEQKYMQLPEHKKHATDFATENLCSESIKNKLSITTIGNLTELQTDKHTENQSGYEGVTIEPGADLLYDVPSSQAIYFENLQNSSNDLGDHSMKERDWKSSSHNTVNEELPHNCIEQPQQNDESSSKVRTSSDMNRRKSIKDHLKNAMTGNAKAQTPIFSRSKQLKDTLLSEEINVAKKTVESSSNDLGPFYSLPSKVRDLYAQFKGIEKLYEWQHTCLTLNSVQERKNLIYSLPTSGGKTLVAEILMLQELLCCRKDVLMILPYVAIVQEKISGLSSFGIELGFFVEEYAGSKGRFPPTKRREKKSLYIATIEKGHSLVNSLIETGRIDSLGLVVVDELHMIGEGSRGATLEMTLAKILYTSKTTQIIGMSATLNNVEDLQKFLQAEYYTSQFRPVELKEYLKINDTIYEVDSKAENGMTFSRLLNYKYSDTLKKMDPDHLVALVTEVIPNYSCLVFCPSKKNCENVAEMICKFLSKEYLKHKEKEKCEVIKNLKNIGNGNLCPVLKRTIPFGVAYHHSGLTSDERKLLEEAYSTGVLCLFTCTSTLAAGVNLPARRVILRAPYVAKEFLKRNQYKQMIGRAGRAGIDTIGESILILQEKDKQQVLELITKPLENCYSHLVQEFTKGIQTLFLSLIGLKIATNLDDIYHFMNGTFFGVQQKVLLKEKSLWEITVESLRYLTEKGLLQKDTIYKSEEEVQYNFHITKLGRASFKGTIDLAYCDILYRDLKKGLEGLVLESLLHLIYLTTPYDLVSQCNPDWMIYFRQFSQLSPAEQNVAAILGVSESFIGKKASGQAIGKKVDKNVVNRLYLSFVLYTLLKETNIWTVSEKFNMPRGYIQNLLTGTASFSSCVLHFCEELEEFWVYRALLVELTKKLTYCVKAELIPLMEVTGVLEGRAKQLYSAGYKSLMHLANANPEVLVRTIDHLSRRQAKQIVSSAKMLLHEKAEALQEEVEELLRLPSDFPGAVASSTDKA", "assay": "single-molecule imaging (optical tweezers with confocal microscopy, C-Trap); gapped λ-DNA held between beads at constant force of 50 pN; 25 nM Alx–RAD51 with or without 50 nM HELQ or HELQ(K365M) in 1× HELQ buffer (25 mM Tris-HCl pH 8.0, 2 mM MgCl2, 50 mM NaCl), 2 mM ATP, 0.2 mg/ml BSA, 1 mM DTT; room temperature; kymographs of Alx–RAD51", "conditions": "both partners purified"}, "HELQ(K365M) [2]": {"molecular_target": "T2, HELQ(K365M) (human, UniProt Q8TDG4 1-1101, K365M)", "T2 construct": "human HELQ helicase with the helicase-dead mutation K365M, made from pFB-MBP-HELQ-Flag by site-directed mutagenesis; also called helicase-dead HELQ; HELQ KM; source: Sf9 insect cells, purified (same procedure as wild-type HELQ); not shown: MBP, N-terminal, cleaved", "T2 sequence (looked up)": "T1 sequence (looked up) with K365M", "assay": "single-molecule imaging (optical tweezers with confocal microscopy, C-Trap); gapped λ-DNA held between beads at constant force of 50 pN; 25 nM Alx–RAD51 with or without 50 nM HELQ or HELQ(K365M) in 1× HELQ buffer (25 mM Tris-HCl pH 8.0, 2 mM MgCl2, 50 mM NaCl), 2 mM ATP, 0.2 mg/ml BSA, 1 mM DTT; room temperature; kymographs of Alx–RAD51", "conditions": "both partners purified"}, "HELQ(K365M) [3]": {"molecular_target": "T3, HELQ(K365M) (human, UniProt Q8TDG4 1-1101, K365M)", "T3 sequence": "T1 sequence (looked up) with K365M", "assay": "EMSA; 2 mM ATP, 2 mM Mg2+; EMSA: 25 mM Tris-HCl pH 8.0, 2 mM ATP, 2 mM MgCl2, 1 mM DTT, 50 mM NaCl, 0.1 mg/ml BSA, 25 nM DNA, 10 min 37 C (20 min for RAD51 +/- HELQ); single-molecule at room temperature in similar buffer", "conditions": "protein: recombinant, tags: C-terminal Flag, N-terminal MBP removed with PreScission"}, "HELQ(K365M);RPA-eGFP": {"molecular_target": "HELQ(K365M);RPA-eGFP (human;human, UniProt Q8TDG4;P27694;P15927;P35244 1-1101;1-616;1-270;1-121, K365M|)", "sequence (P27694 whole entry, chain 2 of 3)": "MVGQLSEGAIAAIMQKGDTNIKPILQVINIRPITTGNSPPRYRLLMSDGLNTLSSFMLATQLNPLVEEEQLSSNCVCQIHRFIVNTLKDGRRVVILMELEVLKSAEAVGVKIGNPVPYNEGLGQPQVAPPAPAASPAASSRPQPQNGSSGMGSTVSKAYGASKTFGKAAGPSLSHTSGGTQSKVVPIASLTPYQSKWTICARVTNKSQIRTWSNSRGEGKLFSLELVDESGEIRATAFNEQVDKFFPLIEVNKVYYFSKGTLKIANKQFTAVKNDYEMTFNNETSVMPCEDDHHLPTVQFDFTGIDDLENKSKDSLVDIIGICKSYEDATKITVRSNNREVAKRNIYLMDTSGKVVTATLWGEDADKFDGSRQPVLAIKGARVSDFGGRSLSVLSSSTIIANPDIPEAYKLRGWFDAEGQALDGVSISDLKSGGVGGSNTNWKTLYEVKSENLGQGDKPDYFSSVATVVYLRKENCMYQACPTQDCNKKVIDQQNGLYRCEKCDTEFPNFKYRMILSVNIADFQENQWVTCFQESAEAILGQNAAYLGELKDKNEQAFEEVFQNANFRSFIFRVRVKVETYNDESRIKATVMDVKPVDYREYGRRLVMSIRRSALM", "sequence (P15927 whole entry, chain 3 of 3)": "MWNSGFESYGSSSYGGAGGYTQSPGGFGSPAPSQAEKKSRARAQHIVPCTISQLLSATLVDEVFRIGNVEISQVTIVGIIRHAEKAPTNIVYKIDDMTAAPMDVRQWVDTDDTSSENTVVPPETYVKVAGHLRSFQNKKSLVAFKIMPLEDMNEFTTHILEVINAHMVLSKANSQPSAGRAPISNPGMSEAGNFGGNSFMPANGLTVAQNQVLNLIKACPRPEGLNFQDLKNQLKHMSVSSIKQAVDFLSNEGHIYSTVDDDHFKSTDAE", "sequence (P35244 whole entry, chain 4 of 3)": "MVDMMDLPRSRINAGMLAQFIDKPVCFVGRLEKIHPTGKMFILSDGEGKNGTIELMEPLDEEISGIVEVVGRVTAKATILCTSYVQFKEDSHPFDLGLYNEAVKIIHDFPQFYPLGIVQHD", "assay": "single-molecule oligo capture; capture on RPA-eGFP-coated lambda ssDNA; dwell time 179 s; EMSA: 25 mM Tris-HCl pH 8.0, 2 mM ATP, 2 mM MgCl2, 1 mM DTT, 50 mM NaCl, 0.1 mg/ml BSA, 25 nM DNA, 10 min 37 C (20 min for RAD51 +/- HELQ); single-molecule at room temperature in similar buffer", "conditions": "protein: recombinant;recombinant; tags: C-terminal Flag; N-terminal MBP removed with PreScission;eGFP; copies: 1;1;1;1; label: 5' Cy3; single strand"}, "HELQ;RPA-eGFP [4]": {"molecular_target": "T4, HELQ;RPA-eGFP (human;human, UniProt Q8TDG4;P27694;P15927;P35244 1-1101;1-616;1-270;1-121, |)", "T4 sequence (P27694 whole entry, chain 2 of 3)": "as the sequence (P27694 whole entry, chain 2 of 3) above", "T4 sequence (P15927 whole entry, chain 3 of 3)": "as the sequence (P15927 whole entry, chain 3 of 3) above", "T4 sequence (P35244 whole entry, chain 4 of 3)": "as the sequence (P35244 whole entry, chain 4 of 3) above", "assay": "single-molecule oligo capture; capture on RPA-eGFP-coated lambda ssDNA; dwell time 134 s; EMSA: 25 mM Tris-HCl pH 8.0, 2 mM ATP, 2 mM MgCl2, 1 mM DTT, 50 mM NaCl, 0.1 mg/ml BSA, 25 nM DNA, 10 min 37 C (20 min for RAD51 +/- HELQ); single-molecule at room temperature in similar buffer", "conditions": "protein: recombinant;recombinant; tags: C-terminal Flag; N-terminal MBP removed with PreScission;eGFP; copies: 1;1;1;1; label: 5' Cy3; single strand"}, "HELQ;RPA-mRFP1": {"molecular_target": "HELQ;RPA-mRFP1 (human;human, UniProt Q8TDG4;P27694;P15927;P35244 1-1101;1-616;1-270;1-121, |)", "sequence (P27694 whole entry, chain 2 of 3, the tested form may be a part)": "as the sequence (P27694 whole entry, chain 2 of 3) above", "sequence (P15927 whole entry, chain 3 of 3, the tested form may be a part)": "as the sequence (P15927 whole entry, chain 3 of 3) above", "sequence (P35244 whole entry, chain 4 of 3, the tested form may be a part)": "as the sequence (P35244 whole entry, chain 4 of 3) above", "assay": "pull-down; via biotin-dT43 on streptavidin beads; 82 nM RPA, fusion not stated; EMSA: 25 mM Tris-HCl pH 8.0, 2 mM ATP, 2 mM MgCl2, 1 mM DTT, 50 mM NaCl, 0.1 mg/ml BSA, 25 nM DNA, 10 min 37 C (20 min for RAD51 +/- HELQ); single-molecule at room temperature in similar buffer", "conditions": "protein: recombinant;recombinant; tags: C-terminal Flag; N-terminal MBP removed with PreScission;mRFP1; copies: 1;1;1;1; label: Cy3 (5' in oligo list, 3' in capture assay); single strand"}, "HELQ;RPA-eGFP [5]": {"molecular_target": "T4, HELQ;RPA-eGFP", "assay": "single-molecule oligo capture; capture on RPA-eGFP-coated lambda ssDNA; EMSA: 25 mM Tris-HCl pH 8.0, 2 mM ATP, 2 mM MgCl2, 1 mM DTT, 50 mM NaCl, 0.1 mg/ml BSA, 25 nM DNA, 10 min 37 C (20 min for RAD51 +/- HELQ); single-molecule at room temperature in similar buffer", "conditions": "protein: recombinant;recombinant; tags: C-terminal Flag; N-terminal MBP removed with PreScission;eGFP; copies: 1;1;1;1; label: Cy3 (5' in oligo list, 3' in capture assay); single strand"}, "HELQ(K365M);RPA-mRFP1": {"molecular_target": "HELQ(K365M);RPA-mRFP1 (human;human, UniProt Q8TDG4;P27694;P15927;P35244 1-1101;1-616;1-270;1-121, K365M|)", "sequence (P27694 whole entry, chain 2 of 3, the tested form may be a part)": "as the sequence (P27694 whole entry, chain 2 of 3) above", "sequence (P15927 whole entry, chain 3 of 3, the tested form may be a part)": "as the sequence (P15927 whole entry, chain 3 of 3) above", "sequence (P35244 whole entry, chain 4 of 3, the tested form may be a part)": "as the sequence (P35244 whole entry, chain 4 of 3) above", "assay": "pull-down; via biotin-dT43 on streptavidin beads; RPA fusion not stated; EMSA: 25 mM Tris-HCl pH 8.0, 2 mM ATP, 2 mM MgCl2, 1 mM DTT, 50 mM NaCl, 0.1 mg/ml BSA, 25 nM DNA, 10 min 37 C (20 min for RAD51 +/- HELQ); single-molecule at room temperature in similar buffer", "conditions": "protein: recombinant;recombinant; tags: C-terminal Flag; N-terminal MBP removed with PreScission;mRFP1; copies: 1;1;1;1; label: Cy3 (5' in oligo list, 3' in capture assay); single strand"}},
  "note": "Changes are numbered by the printed parent chain. Numbers in names are those of the source.",
  "data": [
    {"binder": "B1", "values": [
      {"measurement": "binding result", "setting": "[1]", "result": "binds"},
      {"measurement": "binding result", "setting": "HELQ(K365M) [2]", "result": "binds"}
    ]},
    {"binder": "B2", "values": [
      {"measurement": "binding result", "setting": "HELQ(K365M) [3]; label: 5' FITC, single strand 49 nt", "result": "binds"}
    ]},
    {"binder": "B3", "values": [
      {"measurement": "binding result", "setting": "HELQ(K365M);RPA-eGFP", "result": "binds"},
      {"measurement": "binding result", "setting": "HELQ;RPA-eGFP [4]", "result": "binds"}
    ]},
    {"binder": "B4", "values": [
      {"measurement": "binding result", "setting": "HELQ;RPA-mRFP1", "result": "binds"},
      {"measurement": "binding result", "setting": "HELQ;RPA-eGFP [5]", "result": "binds"},
      {"measurement": "binding result", "setting": "HELQ(K365M);RPA-mRFP1", "result": "binds"}
    ]},
    {"binder": "B5", "values": [
      {"measurement": "binding result", "setting": "HELQ(K365M) [3]; label: 5' FITC on strand 1, blunt 49 bp", "result": "binds"}
    ]}
  ]
}
